Assay [1] has as its target Pus8AA+LMY➔A-ACE2-Cherry (human) (UniProt Q9BYF1).
Assay [2] has as its target mACE 1-357 ACE2-Cherry hybrid (mouse | human) (UniProt Q8R0I0).

The results in this text go back to doi:10.1101/2024.03.07.583884.

In turn, “OM.BA.1-RBD-β2AR-GFP (from UniProt P0DTC2 333-529) (domain or fragment)” gave a reduction of Pus8AA +LMY➔A-Cherry fluorescence, DPF assay in assay [1] of 17.2%. Moreover, the loss of ACE2 fluorescence, DPF assay in assay [2] stood at 24.8%.
